These results are taken from patent US20240409620A1 (published 2024).

Like-named read-outs stand apart in the source and are kept apart here.

Test [1] concerns the target T1, RSV/B/B9320 pre-fusion F protein (respiratory syncytial virus RSV/B/B9320). Briefly: BLI. (In general: In BLI a coated tip is dipped into the sample, and binding shifts an interference pattern.)
For test [2], the target named is T2, RSV/A/A2 pre-fusion F protein (respiratory syncytial virus RSV/A/A2, UniProt P03420 26-109). Briefly: BLI.
Test [3] addresses T2, RSV/A/A2 pre-fusion F protein. The test is described as follows: ELISA. (In an ELISA, binding on a coated surface is turned into a signal by an enzyme label.)
Test [4] shares this target. Briefly: BLI. The source holds these as a separate data set.
Test [5] has as its target T1, RSV/B/B9320 pre-fusion F protein. Briefly: ELISA.

B1: MEDI8897 (antibody, V domains shown)
VH: QVQLVQSGAEVKKPGSSVMVSCQASGGLLEDYIINWVRQAPGQGPEWMGGIIPVLGTVHYGPKFQGRVTITADESTDTAYMELSSLRSEDTAMYYCATETALVVSETYLPHYFDNWGQGTLVTVSS
VL: DIQMTQSPSSLSAAVGDRVTITCQASQDIVNYLNWYQQKPGKAPKLLIYVASNLETGVPSRFSGSGSGTDFSLTISSLQPEDVATYYCQQYDNLPLTFGGGTKVEIK
Broadly, the Kd is the free concentration of one partner at which half of the binding sites on the other are occupied at equilibrium, for simple one-to-one binding. Regarding B1, the Kd in test [1] is 660 pM; in test [2], 17.2 pM.

B2: Palivizumab (SYNAGIS) (antibody, V domains shown)
VH: QVTLRESGPALVKPTQTLTLTCTFSGFSLSTSGMSVGWIRQPPGKALEWLADIWWDDKKDYNPSLKSRLTISKDTSKNQVVLKVTNMDPADTATYYCARSMITNWYFDVWGAGTTVTVSS
VL: DIQMTQSPSTLSASVGDRVTITCKCQLSVGYMHWYQQKPGKAPKLLIYDTSKLASGVPSRFSGSGSGTEFTLTISSLQPDDFATYYCFQGSGYPFTFGGGTKLEIK
For the molecule B2, the Kd in test [1] is 362 pM; in test [2], 40.7 pM.

B3: 4F1En1 (VH-S75R) (antibody, V domains shown)
VH: QVQLVESGGGVVQPGRSLRLSCAASGFSFYSYSVHWVRQAPGKGLEWVADVVYDGNHQHYTDSVKGRFTISRDTRKNTVYLQMGSLRAEDTALYYCTARSLVITLAGAGRDDYWGQGTTVTVSS
VL: DIVMTQSPLSLPVTPGEPASISCRSSQSLLHSNGYTYLDWYLQKPGQSPQLLIFLGSSRASGVPDRFSGSGSGTDFTLKISRVEAEDVGVYYCVQDLQTSLTFGGGTKLEIKR
Broadly, the EC50 is the concentration at which the effect is half-maximal. The low end stands for an effect from little substance, the high end for a need for much substance. As for B3, the EC50 in test [3] is 0.0245 µg/mL; in test [5], 0.0565 µg/mL. Further, the Kd in test [1] is 1.8 pM; in test [4] it was less than 1 pM.

B4: fully human monoclonal antibody 4F1 wild type (antibody, V domains shown)
VH: EVQLVQSGGGVVRPGRSLRLSCAASGFSFYSYSVHWVRQAPGKGLEWVADVVYDGNHQHYTESVRGRFSISRDTSTNTVYLQMGSLRPEDTALYYCTARSLVITLAGAGRDDYWGQGTRVTVSS
VL: DIVMTQSPLSLSVTPGEPASISCKSSQSLLHSNGYTYLDWYLQKPGKSPQLLIFLGSSRASGVPARFSGSGSGTDFTLEISRVEAEDVGVYYCVQDLQTSLTFGGGTKVDIK
In the case of B4, in test [1], the Kd turned out to be 68.4 pM. For the same molecule, in test [5], the EC50 worked out at 0.111 µg/mL.

B5: 4F1 germline reversion (antibody, V domains shown)
VH: QVQLVESGGGVVQPGRSLRLSCAASGFSFYSYSVHWVRQAPGKGLEWVADVVYDGNHQHYTDSVKGRFTISRDTSKNTVYLQMGSLRAEDTALYYCTARSLVITLAGAGRDDYWGQGTTVTVSS
VL: DIVMTQSPLSLPVTPGEPASISCRSSQSLLHSNGYTYLDWYLQKPGQSPQLLIFLGSSRASGVPDRFSGSGSGTDFTLKISRVEAEDVGVYYCVQDLQTSLTFGGGTKLEIKR
On to B5, for which the EC50 in test [3] is 0.0536 µg/mL; in test [5], 0.0781 µg/mL.
